Laboratory results published in publication PMC2120661.

Target: VLA-5 integrin (alpha5 beta1), affinity-isolated from mouse thymocyte lysate (mouse (endogenous in thymocytes)) (UniProt P09055)
Assay: ELISA

B1: L1-RGD peptide (peptide)
peptide: CWRGDGRDLQERGDSDK
For B1, the percent inhibition of the binding of L1 to VLA-5 at 500 ug/ml peptide was 80%.
